From US20220356245A1 (FORTY SEVEN, published 2022) come the findings set out here.

For orientation: EC50 means the concentration giving half of the maximal effect. A high value points to lower potency in that assay. As a reminder, the Kd is the concentration at which binding is half-saturated. As usually defined, the koff is a measure of how fast the partners let go of each other. Read a high koff as fast dissociation. Usually kon stands for a measure of how fast the partners come together. The term IC50 denotes the midpoint of a concentration-inhibition curve. Higher therefore signals weaker potency in that assay.

The target in experiment [1] is T1, human CD47 (hCD47) expressed on cells (human, UniProt Q08722 19-323).
T1 construct: Transfected CHO cells or endogenous CD47 of human cells; also called CHO-hCD47; CD47 on Raji cells
In words: flow cytometry, Raji cells. On the technique in general: In flow cytometry, cells or beads pass a laser one at a time.

Experiment [2] addresses T2, hu-sCD47-6His; extracellular domain of human CD47 antigen with 6His-tag (human).
T2 construct: also called hCD47-his; soluble hCD47
In words: SPR Biacore T200, antibody captured, hCD47-his analyte. (SPR reads the build-up and loss of mass on a sensor chip optically.)
Text: An anti-human or anti-mouse IgG (Fc) was first immobilized on the surface of Serie S Sensor Chips CM5 using the human or mouse antibody capture and amine coupling kits, following the manufacturer's instructions (GE Healthcare). […] The mouse, chimerized or humanized antibodies to be tested were then captured onto the appropriate anti-mouse or anti-human IgG surface in all flow cells except flow cell 1 used as control, at concentration and contact time adjusted so that ˜300 RU were captured on the surface. Binding kinetics were studied by passing increasing concentrations of hCD47-his in a series of five 10 minute injections through all flow cells at a rate of 30 μL/min. […] Following the final injection, buffer was passed across each flow cell for 60 minutes (mouse) or 30 minutes (human) to monitor the dissociation of bound antigen. Regeneration of the binding surface was carried out at the end of the cycle by flowing 3 M MgCl₂ for 60 s at 20 μL/min followed by 10 mM glycine-HCl, pH 1.7 for 180 s at 10 μl/min (for human) or by flowing 10 mM glycine-HCl, ph 1.7 for 360 s at 10 μl/min (for mouse). A second cycle with the same antibodies but no antigen was run as a control. Kinetics binding constants were estimated by non-linear fitting of the sensogram data to the 1:1 binding model provided by the Biacore T200 evaluation software.

The target of experiment [3] is T1, human CD47 (hCD47) expressed on cells. Put plainly: flow cytometry, hCD47-CHO cells, competition with His-hSIRPα.
Experimental: (§1) Human CD47-transfected cells (3×10⁵ cells/well of 96-well plate) were first incubated at +4° C. for 30 minutes with serial dilutions of anti-CD47 antibodies or isotype control antibody (in mIgG2a or mIgG1 format). […] The percentage inhibition was plotted against antibody concentration and the IC50 values were calculated using a nonlinear regression analysis model of the GraphPad Prism software.
The target is the same in experiment [4]. In words: flow cytometry, hCD47-CHO cells, competition with His-hSIRPα; lower end tied to candidate 26 by Table 5.
Experimental: as §1
For experiment [5] the target is unchanged. Put plainly: cell-based or functional assay.
Experiment [6] addresses T3, mouse CD47 (mCD47) expressed on CHO cells (mouse, UniProt Q61735 19-303).
T3 construct: whole, on cells; also called CHO-mCD47
T3 sequence (looked up): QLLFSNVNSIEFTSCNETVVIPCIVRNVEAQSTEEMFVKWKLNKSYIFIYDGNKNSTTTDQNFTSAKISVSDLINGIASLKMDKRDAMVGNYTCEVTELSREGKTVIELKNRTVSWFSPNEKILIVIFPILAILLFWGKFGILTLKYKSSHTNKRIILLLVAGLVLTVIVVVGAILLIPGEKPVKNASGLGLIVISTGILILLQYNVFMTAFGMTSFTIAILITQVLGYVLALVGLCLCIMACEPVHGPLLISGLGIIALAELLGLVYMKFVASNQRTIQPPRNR
In words: flow cytometry, CHO-mCD47 cells.

For experiment [7], the target named is T1, human CD47 (hCD47) expressed on cells. Put plainly: flow cytometry, hCD47-CHO cells, competition with His-hSIRPα; upper end tied to candidate 33 by Table 5.
Experimental: as §1
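Wherever Kd is given: antibodies captured on anti-IgG (Fc) CM5 chip, five sequential 10 min antigen injections at rising concentrations, reference flow cell and antigen-free cycle as controls, 1:1 model fit.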
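Wherever koff is given: antibodies captured on anti-IgG (Fc) CM5 chip, five sequential 10 min antigen injections at rising concentrations, reference flow cell and antigen-free cycle as controls, 1:1 model fit.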
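Wherever kon is given: antibodies captured on anti-IgG (Fc) CM5 chip, five sequential 10 min antigen injections at rising concentrations, reference flow cell and antigen-free cycle as controls, 1:1 model fit.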

B1: Candidate 26 (VT008-AL6-10G3-10K1), mouse IgG (antibody, V domains shown)
VH: QVQLQQPGPELVKPGASVKLSCKASGYTFTNYWIHWLNQRPGRGLEWIGRIDPNSGGTKYNEKFKSKAILTVDKSSSTTYMQLSSLTSEDSAVYYCARGGYTMDYWGQGTSVTVSS
VL: DVVMPQTPLSLPVSLGDHASISCRSSQSLLHSNGNTYLHWYLQKPGQSPKLLIYKVSYRFSGVPDRISGSGSGTDFTLKISRVEAEDLGVYFCFQSTHVPWTFGGGTKLEIK
notes: Recombinant mouse IgG2a or mIgG1 format, by assay
Take B1: the EC50 in experiment [1] was 0.07 µg/mL. Moreover, in experiment [2], the affinity, expressed as Kd, was 1.87 nM; the koff worked out at 0.000372 s⁻¹; the kon is 200000 M⁻¹ s⁻¹. Moreover, the IC50 in experiment [3] stood at 0.359 µg/mL. In addition, the IC50 in experiment [4] was found to be 2.4 nM. Further, the “Phagocytic index, Raji cells and human macrophages, antibody at 0.125 µg/mL” value in experiment [5] is 85.3 Raji cells ingested per 100 macrophages.

B2: Candidate 33 (VL008-AL17-8G5-8K7), mouse IgG (antibody, V domains shown)
VH: LVQLQQSGPELVKPGTSVKISCRSSGYTFTDYYINWVQQRPGQGLEWVGWIFPGSGLTYYNKKFKGKATLSVDKSSNTAYMLLSSLTSEDSAVYFCARPYYGSRWDYTMDYWGQGTSVTVSS
VL: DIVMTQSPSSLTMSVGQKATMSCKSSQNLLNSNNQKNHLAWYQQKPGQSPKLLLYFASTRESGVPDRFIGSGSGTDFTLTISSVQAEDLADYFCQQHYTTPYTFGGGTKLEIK
notes: as for B1
As for B2, the midpoint of the response in experiment [1], the EC50, lay at 0.112 µg/mL. In experiment [2], this molecule had a Kd of 0.898 nM, a koff of 6.7e-05 s⁻¹ and a kon of 74600 M⁻¹ s⁻¹. Moreover, the binding result in experiment [6] is “no binding (tested: 7.3 µg/mL highest concentration)”. In experiment [3], the IC50 came out at 1.11 µg/mL. The same molecule gave an IC50 in experiment [7] of 7.3 nM. In experiment [5], the “Phagocytic index, Raji cells and human macrophages, antibody at 0.125 µg/mL” value is 71.4 Raji cells ingested per 100 macrophages.
